Measured values taken from US20070015155A1 (published 2007).

Molecular target: T1, GST protein (UniProt P08515 1-218 = GST)
T1 construct: Control protein of the GST pull-down, on glutathione beads; also called protein consisting of the GST part alone; product of pGEX-6P-1
Assay: GST pull-down with 35S-labeled in vitro translated protein, SDS-PAGE, autoradiography
Protocol: Using the protein GST-Cbl prepared above in (2), the presence or absence of the direct interaction of human and mouse CbAP40 proteins with the c-Cbl protein was confirmed by the GST-pull down method (Zikken Kougaku, Vol. 13, No. 6, 1994, p. 528, Matsushime, et al.). Using 0.5 μg of pcDNA-CbAP40 prepared above in Example 1(4) or pcDNA-mCbAP40 prepared above in Example 8(2) as a template, and additionally using 40 μl of TNT kit (TNT^R Quick Coupled Transcription/Translation System; Promega) and 1.3 MBq of a radioisotope (redivue Pro-mix L-[³⁵S]; Amersham) according to the attached protocol, human or mouse CbAP40 protein radioactively labeled was prepared by in vitro transcription and translation. Then, 15 μl each of the prepared solution of human or mouse CbAP40 protein was mixed with 1 μl of the GST protein or GST-Cbl purified on glutathione beads as described above in (2) to which 0.3 ml of Buffer A (50 mM Tris-HCl, pH 7.5, 10% glycerol, 120 mM NaCl, 1 mM EDTA, 0.1 mM EGTA, 0.5 mM PMSF, 0.5% NP-40) was added. The resulting mixture was shaken at 4° C. for one hour. Subsequently, the protein binding to the GST protein or GST-Cbl on the bead was co-precipitated by centrifugation. […] Consequently, a band never detected in mixing the GST protein was detected in case of mixing GST-Cbl.

T1 sequence (P08515 whole entry): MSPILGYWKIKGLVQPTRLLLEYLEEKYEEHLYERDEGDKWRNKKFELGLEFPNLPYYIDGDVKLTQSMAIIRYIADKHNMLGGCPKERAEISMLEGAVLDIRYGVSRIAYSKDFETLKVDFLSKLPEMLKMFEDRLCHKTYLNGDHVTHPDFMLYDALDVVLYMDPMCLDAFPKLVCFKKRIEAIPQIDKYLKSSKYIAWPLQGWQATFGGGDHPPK

B1: human CbAP40-V5-His6 fusion protein (other, not shown: small tags and cut ends)
chain: MMSSSWPGTSPRLSRGSGSCLTSGATGPCQADSSLKAGPGAGVFFLSSAEGEQISFLFDCIVRGISPTKGPFGLRPVLPDPSPPGPSTVEERVAQEALETLQLEKRLSLLSHAGRPGSGGDDRSLSSSSSEASHLDVSASSRLTAWPEQSSSSASTSQEGPRPAAAQAAGEAMVGASRPPPKPLRPRQLQEVGRQSSSDSGIATGSHSSYSSSLSSYAGSSLDVWRATDELGSLLSLPAAGAPEPSLCTCLPGTVEYQVPTSLRAHYDTPRSLCLAPRDHSPPSQGSPGNSAARDSGGQTSAGCPSGWLGTRRRGLVMEAPQGSEATLPGPAPGEPWEAGGPHAGPPPAFFSACPVCGGLKVNPPP
modifications: radioactively labeled by in vitro transcription and translation with redivue Pro-mix L-[35S]
notes: Made by in vitro transcription/translation (TNT kit) from pcDNA-CbAP40; 411 amino acids in total with the 45-residue C-terminal tag. 'mature' stands here for the full-length protein (no signal peptide is mentioned); also called human CbAP40 protein; Cbl associated protein 40
Question: Does B1 bind?
Answer: no binding
